Source: patent US20250042994A1 (HAINAN SIMCERE ZAIMING PHARMACEUTICAL, published 2025)

B1: F5.2.9 (antibody, human IgG1, V domains shown)
VH: QVTLKESGPGILQPSQTLSLTCSFSGFSLSTFGLGVGWVRQPSGKGLEWLAHIWWDDDKYYNPALKSRVTVSKETSKNQVFFKIANVDTADSATYYCARLSRGLRRDVVYAMDHWGQGTSVTVSS
VL: DIQMTQTTSSLSASLGDRVTISCRASQDISNYLNWYQQKPDGSVKLLISYVSRLQSGVPSRFRGSGSGTDYSLTISNLDQEDIATYFCQQGIAFPYTFGGGTKLDIK
notes: human-murine chimeric antibody, human IgG1
B2: F6.12.12 (antibody, human IgG1, V domains shown)
VH: DVQLQESGPGLVKPSQSLSLTCSVTGYSITSGYYWIWIRQFPGNKLEWMGYISYDASNKYKPSLKNRISITRDTSKNQFFLKLNSVTAEDTATYFCAREDLRGYFDVWGTGTSVTVSS
VL: DIVLTQSPASLAVSLGRRATISCRASQSVSTSGFSYMHWYQQKPGQPPNLLIKYASILQSGVPARFSGSGSGTDFILNIHPVEDVDTATYYCQHSWGIPFTFGSGTKLEIK
notes: as for B1
B3: F5.10.6 (antibody, human IgG1, V domains shown)
VH: DVQLQESGPGLVKPSQSLSLTCSVTDYSITSGYYWTWIRQFPGNKLEWMGYISYDGSTNYNPSLKNRFSITRDTSKNQFFLKLNSVIIEDTATYYCARDRMSTTWYFDVWGTGTTVTVSS
VL: DIVLTQSPASLAVSLGQRATISCRASESVDNYGISFMHWYQQKPGQPPKLLIYRASKTESGIPARFSGSGSRTDFTLTINPVETDDVATYYCQQSNKYPRTFGGGTKVEIK
notes: as for B1
B4: F4.272.13 (antibody, human IgG1, V domains shown)
VH: QVQLKESGPGLVAPSQSLSITCTVSGFSLTDYGVSWIRQPPGKGLEWLGVIWGSETTFYNSALKSRLSISKDNSKSQLFLQMNSLQADDTAIYYCAKHHYYGGSFSMDYWGQGTSVTVSS
VL: DIQMTQTTSSLSASLGDRVTISCRASQDINNYLNWYQQKPDGTVKFLIYYTSRLHSGVPSRFSGSGSGTDYSLTISDLEQEDIATYFCQQGNTLPYTFGGGTKLEIK
notes: as for B1
B5: F5.3.6 (antibody, human IgG1, V domains shown)
VH: DVQLQESGPGLVKPSQSQSLTCSVTGYSITSGYYWNWIRQFPGNKLEWMGYISYDGSNNYNPSLKNRISITRDTSKNQFFLKLNSVTTEDTVTYYCARAPLTGDRYWYFDVWGTGTTVTVSS
VL: DIVLTQSPASLAVSLGQRATISCRASQSVSTSSYSYMHWYQQKPGQTPKLLIKYASNLKSGVPARFSGSGSGTDFTLNIHPVEEEDTATYYCQHSWEIPPTFGGGTKLEIK
notes: as for B1
B6: F4.276.12 (antibody, human IgG1, V domains shown)
VH: EIQLQQSGPELVKPGASVKVSCKASGYAFSAYNMYWVKQSHGKSLEWIGYIDPYNGGTNYNQKFKGKATLTVDKSSSTAYMHLNSLTSEDSAVYYCARDGYEVTYWGQGTLVTVSA
VL: QIVLTQSPALMSASLGEEITLTCSASSSVTYMHWSQQKSGTSPRLLIYSTSNLASGVPSRFSGSGSGTFYSLTISSVEAEDAADYYCHQWSSYPWTFGGGTKLEIK
notes: as for B1
B7: F5.8.6 (antibody, human IgG1, V domains shown)
VH: QVQLHQPGAELVMPGASVTLSCKASGYTFTSYWMHWVKQRPGQGLEWIGEIDPSDSYTTYDQKFKGKATLTVDKFSSTAYMQFSSLTSEDSAVYYCARLTGNHLDYWGQGTTLTVSS
VL: DIVMTQSHKFMSSSVGDRVSITCKASQDVSPAVAWYQQKPGQSPKLLIYSTSYRNTGVPDRFTGSGSGTDFTFTISSVQAEDLAVYYCQQHYSIPLTFGAGTKLELK
notes: as for B1

These binders were tested against T1, cynomolgus monkey CD19 on peripheral blood B cells (cynomolgus monkey (Macaca fascicularis), UniProt A0A2K5W8L9 20-557) (assay: FACS, cynomolgus PBMC, CD20+ B cells).
T1 construct: whole, on cells; also called cynomolgus monkey B cells
T1 sequence: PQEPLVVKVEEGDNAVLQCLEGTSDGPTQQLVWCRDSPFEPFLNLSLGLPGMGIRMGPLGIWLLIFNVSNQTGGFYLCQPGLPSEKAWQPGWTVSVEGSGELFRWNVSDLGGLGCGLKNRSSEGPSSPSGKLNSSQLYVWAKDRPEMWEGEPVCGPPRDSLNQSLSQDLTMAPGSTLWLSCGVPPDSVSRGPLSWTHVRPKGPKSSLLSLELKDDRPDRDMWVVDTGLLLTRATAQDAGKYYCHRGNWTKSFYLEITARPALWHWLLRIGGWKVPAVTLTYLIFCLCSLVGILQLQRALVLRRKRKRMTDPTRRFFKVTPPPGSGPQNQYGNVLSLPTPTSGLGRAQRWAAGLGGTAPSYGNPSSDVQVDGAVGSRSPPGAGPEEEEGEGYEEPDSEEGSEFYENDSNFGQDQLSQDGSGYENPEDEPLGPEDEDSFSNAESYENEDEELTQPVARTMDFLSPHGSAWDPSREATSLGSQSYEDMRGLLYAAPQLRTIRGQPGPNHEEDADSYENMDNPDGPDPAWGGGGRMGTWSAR
Description: The monkey peripheral blood mononuclear cells were extracted from fresh cynomolgus monkey peripheral blood (purchased from Shanghai Medicilon Inc.) according to the instructions of Ficoll-Paque Plus (purchased from GE Healthcae, catalog number: 171440-02). After the cell suspension was centrifuged, the cells were resuspended in PBS containing 1% BSA, and then the cells were counted. […] The mixture was incubated for 1 h at room temperature. After washing the cells three times, APC-labeled secondary antibody anti-human IgG Fc (catalog number: 409306, purchased from Biolegend) was added. After incubation at room temperature in the dark for 30 minutes, the cells were washed 5 times, gently resuspended with PBS containing 1% BSA, and detected and analyzed by FACS (FACS Canto™, purchased from BD Company), in which CD20 was used as a marker of B cells to gate the CD20-positive B cell population, the proportion of the chimeric antibody-labeled positive cells was analyzed, and the proportion of the chimeric antibody positive cell population to B cell population was calculated after treatments with the chimeric antibodies at the concentrations of 100 nM, 10 nM and 1 nM, respectively.

Row | Binder | Proportion of chimeric antibody positive cells to B cells (%) at 1 nM [%] | Proportion of chimeric antibody positive cells to B cells (%) at 10 nM [%] | Proportion of chimeric antibody positive cells to B cells (%) at 100 nM [%]
1 | B1 | 93 | 98 | 98
2 | B2 | 91 | 97 | 97
3 | B3 | 61 | 97 | 99
4 | B4 | 1 | 2 | 9
5 | B5 | 2 | 7 | 12
6 | B6 | 2 | 1 | 2
7 | B7 | 5 | 13 | 18

What follows are binders tested against T2, monkey CD19 on HEK293T-monkey CD19 cells (monkey) (assay: FACS on HEK293T-monkey CD19 cells).
T2 construct: whole, on cells
Description: (§1) After the digestion was terminated, the cells were washed 2 times with a PBS buffer; and for suspension cell Raji, the supernatant of the medium was discarded by directly centrifugation, and the cell pellet was washed 2 times with PBS. After counting the cells in the previous step, the cell pellet was resuspended with [PBS+2% (w/w) BSA] blocking solution to 2×10⁶ cells/ml, and added to a 96-well FACS reaction plate at 50 μl/well, and then the sample to be tested was added at 50 μl/well, and incubated on ice for 2 h. The obtained mixture was centrifuged and washed 3 times with a PBS buffer. […] The obtained mixture was centrifuged and washed 5 times with a PBS buffer, and FACS (FACS Canto™, purchased from BD Company) was used for detection and result analysis. Data analysis was performed by software (FlowJo) to obtain the mean fluorescence intensity (MFI) of the cells. And then software (GraphPad Prism8) was used for analysis, data fitting, and EC50 value calculation. […] The same method was used to detect the binding of the chimeric antibodies to endogenous CD19-negative cells, MoLT4 cells (purchased from ATCC, CRL-1582), and CHO-K1 cells.
HEK293T-monkey CD19 cells were subjected to FACS detection and data analysis according to the method in example 5.2. […] The same method was used to detect binding of the chimeric antibodies to HEK293T cells.

Row | Binder | EC50 [nM] | Maximum mean fluorescence intensity
8 | B1 | 2.82 | 81500
9 | B2 | 0.94 | 99100
10 | B3 | 4.98 | 99900
11 | B4 | 3.86 | 40500
12 | B5 | 20.7 | 26100
13 | B6 | – | 597
14 | B7 | 5.7 | 43800

The binders below were run against T3, human CD19 on Raji cells (human, UniProt P15391 20-556) (assay: FACS on Raji cells).
T3 construct: whole, on cells
T3 sequence (looked up): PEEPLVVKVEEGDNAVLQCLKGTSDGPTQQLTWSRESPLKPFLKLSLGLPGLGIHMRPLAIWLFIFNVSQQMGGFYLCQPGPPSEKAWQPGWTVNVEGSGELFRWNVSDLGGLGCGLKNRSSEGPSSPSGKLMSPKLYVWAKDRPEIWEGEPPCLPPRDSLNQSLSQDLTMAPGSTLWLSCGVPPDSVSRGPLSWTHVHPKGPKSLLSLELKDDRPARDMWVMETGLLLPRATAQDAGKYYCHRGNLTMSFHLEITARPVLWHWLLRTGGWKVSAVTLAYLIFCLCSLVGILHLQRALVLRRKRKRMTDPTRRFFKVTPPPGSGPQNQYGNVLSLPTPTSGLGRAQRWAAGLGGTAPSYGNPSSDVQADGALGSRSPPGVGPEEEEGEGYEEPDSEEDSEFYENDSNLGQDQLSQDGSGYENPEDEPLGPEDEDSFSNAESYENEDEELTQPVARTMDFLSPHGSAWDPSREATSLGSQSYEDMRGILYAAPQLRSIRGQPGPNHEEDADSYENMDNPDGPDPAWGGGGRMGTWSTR
Description: as §1, with “The desired cells were scale-up cultured in a T-75 cell culture flask to the logarithmic growth phase. For the adherent cell CHO-K1, the medium was aspirated, the cells were washed 2 times with a PBS buffer, and then digested with trypsin. After the” for “After the”

Row | Binder | EC50 [nM] | Maximum mean fluorescence intensity
15 | B1 | 2.79 | 17600
16 | B2 | 5.25 | 43300
17 | B3 | 1.34 | 22100
18 | B4 | 0.81 | 27600
19 | B5 | 3.19 | 22400
20 | B6 | 0.78 | 23500
21 | B7 | 1.26 | 27300

The binders below were run against T4, human CD19 on CHO-K1-human CD19 cells (human, UniProt P15391 20-556) (assay: FACS on CHO-K1-human CD19 cells).
T4 construct: whole, on cells; also called CHO-K1-human CD19-2C8
T4 sequence (looked up): T3 sequence (looked up)
Description: as §1, with “The desired cells were scale-up cultured in a T-75 cell culture flask to the logarithmic growth phase. For the adherent cell CHO-K1, the medium was aspirated, the cells were washed 2 times with a PBS buffer, and then digested with trypsin. After the” for “After the”

Row | Binder | EC50 [nM] | Maximum mean fluorescence intensity
22 | B1 | 1.02 | 34000
23 | B2 | 0.84 | 63300
24 | B3 | 2.6 | 47700
25 | B4 | 0.77 | 55300
26 | B5 | 3.62 | 46900
27 | B6 | 1.05 | 50200
28 | B7 | 3.5 | 53600
